We go through 72 sequences from the supplement of paper PMC10567573.

The nature of this data set: protein stability index of a GFP-peptide fusion (GPS, HEK-293T) (PSI 1-6); higher = more stable.
[1] abbreviates: treatment: DMSO, c terminus: a fixed tail appended.
Setting [2] is: treatment: MLN4924 1 uM, 8 h, c terminus: a fixed tail appended.
Where [3] appears, read: treatment: DMSO, c terminus: native.
Where [4] appears, read: treatment: MLN4924 1 uM, 8 h, c terminus: native.

± gives the standard deviation.
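Note: 24-mer peptide tiles fused after GFP, lentivirally expressed, FACS-sorted into six equal bins by GFP/DsRed ratio, decoded by Illumina sequencing, PSI is the read-weighted mean bin number.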

With QFHALQSKLEERFGPDSKSSALAC [NCF4], the protein stability index is 3.5 ± 0.28 under setting [1] and 3.6 ± 0.54 under setting [2].
For the sequence QFYGYLSQQQNMMQDYVRTGTYQR [CARM1], the protein stability index under setting [1] stood at 2.47 ± 0.086 and the protein stability index under setting [2] was determined as 2.72 ± 0.22.
QGDSADETTAHKTEEENSDSDSD [CMTM3]: the protein stability index reads like this: under setting [3], 5.6 ± 0.2; under setting [4], 5.7 ± 0.23.
QHVPEELDLSSSSQMSPLSLYGEN [ATF6] gave a protein stability index under setting [1] of 4.97 ± 0.19 and a protein stability index under setting [2] of 5 ± 0.18.
The sequence QICAQVSFFFPPVNLPISFFRKLL [NLN] displayed a protein stability index under setting [1] of 2.76 ± 0.039 and a protein stability index under setting [2] of 3.45 ± 0.17.
Taken in the same sequence, the figures for QIGCKLPDDYRCSYRIHNGQKLVV [FBXO3] were 2.06 ± 0.26 and 2.18 ± 0.24.
With QIKCIELKSELGRKWHKASNYIFV [P2RY14], the protein stability index reads like this: under setting [1], 2.72 ± 0.93; under setting [2], 2.67 ± 0.47.
Consider QINDGMGGDGDDMEIFMEEMREIR [BEX3], for which the protein stability index by setting is: under setting [1], 4.81 ± 0.17; under setting [2], 4.75 ± 0.28.
Taken in the same sequence, the figures for QKLDAFLQPLSKPLSSQPQAIVTE [MLH1] were 4.17 ± 0.3 and 4.21 ± 0.21.
The sequence QKLREESAARVVLTSLLACLPAGP [DUSP5] showed a protein stability index under setting [1] of 2.15 ± 0.26 and a protein stability index under setting [2] of 2.06 ± 0.13.
Taken in the same sequence, the figures for QKQRLREILEQQQQERNDTNFHGV [ZNF277] were 4.53 ± 0.3 and 4.59 ± 0.23.
Taken in the same sequence, the figures for QLAQLRCEMEQQSQEYQILLDVKT [KRT16] were 3.34 ± 0.076 and 3.55 ± 0.28.
Turning to QLKWASWELHSLRHCDDDGRTENG [ZNF24], the protein stability index runs as follows: under setting [1], 3.83 ± 0.31; under setting [2], 4.04 ± 0.21.
Regarding QLLKNNEKLITWLNKELNENQLVR [SASS6], the protein stability index runs as follows: under setting [1], 1.88 ± 0.62; under setting [2], 2.08 ± 0.38.
With QLSPNLDLDPLELIALANRFCLPH [RHOBTB1], the protein stability index was 2.27 ± 0.11 under setting [1] and 2.44 ± 0.11 under setting [2].
Consider QLVEMTGLSPRVIRVWFQNKRCKD [ISL2], for which the protein stability index under setting [1] was determined as 2.47 ± 0.4 and the protein stability index under setting [2] came out at 2.95 ± 0.43.
Consider QNPAGELEGFQAQGHPPSLFPPKA [ATE1], for which the protein stability index by setting is: under setting [1], 4.66 ± 0.075; under setting [2], 4.82 ± 0.17.
Regarding QPKQLIVDDLKGSLKEDLTQHKFI [SPRY1], the protein stability index is, setting by setting: under setting [1], 4.14 ± 0.13; under setting [2], 4.2 ± 0.22.
In the case of QPRDEEEAELELLRQFDLAWQYGP [POLD4], the protein stability index by setting is: under setting [1], 4.87 ± 0.34; under setting [2], 4.54 ± 0.27.
Regarding QPVDAIKLNLPDYHKIIKNPMDMG [BRD3], the protein stability index is, setting by setting: under setting [1], 3.12 ± 0.35; under setting [2], 2.92 ± 0.23.
As for QQKEEEEEMAVVPQGLFRGGKSGE [CHGA], the protein stability index by setting is: under setting [1], 5.52 ± 0.28; under setting [2], 5.63 ± 0.12.
For the sequence QRKLKPPIVPKIAGDGDTSNFETY [PRKX], the protein stability index is, setting by setting: under setting [1], 4.38 ± 0.16; under setting [2], 4.47 ± 0.12.
Taken in the same sequence, the figures for QSAYDVADMLKQYFRDLPEPLMTN [DLC1] were 2.67 ± 0.32 and 2.72 ± 0.33.
For QSHDDLSNATATPSVRKKAGSFSR [C2CD2L], the protein stability index is, setting by setting: under setting [1], 4.75 ± 0.31; under setting [2], 4.67 ± 0.2.
On to QSLLGYTPEELHAMLDVKPDADE [ETS1], for which the protein stability index worked out at 5.2 ± 0.36 under setting [3] and 5.18 ± 0.32 under setting [4].
With QSRRTALATSPITVGDLGIVRRRS [YJU2B], the protein stability index runs as follows: under setting [1], 4.27 ± 0.16; under setting [2], 4.36 ± 0.25.
As for QSSCSGPTHTPRPADFSLGSLPGP [VENTX], the protein stability index amounted to 3.83 ± 0.13 under setting [1] and 3.89 ± 0.36 under setting [2].
Regarding QTRNGLGKDHEILRRRIENGAKEL [FUT8], the protein stability index under setting [1] was 4.34 ± 0.33 and the protein stability index under setting [2] came out at 4.33 ± 0.1.
As to QVDSLRPASFPTWGCDLGVVTRVV [BRF1], the protein stability index is, setting by setting: under setting [1], 2.66 ± 0.11; under setting [2], 2.5 ± 0.18.
With QVLDEVIPIHGKGNFPTMEVKPKD [TENT5D], the protein stability index runs as follows: under setting [1], 4.61 ± 0.18; under setting [2], 4.6 ± 0.24.
Regarding QVQQVEVEATVKPELTAALRDIRA [PRPH], the protein stability index under setting [1] was determined as 4.02 ± 0.31 and the protein stability index under setting [2] is 4.32 ± 0.18.
For the sequence QYLAERYKVNTPMLQSFINYCLLF [SLC35F2], the protein stability index by setting is: under setting [1], 2.58 ± 0.6; under setting [2], 2.64 ± 0.53.
On to QYLALPERAELAASLGLTQTQVKI [DLX1], for which the protein stability index is, setting by setting: under setting [1], 2.95 ± 0.33; under setting [2], 3.03 ± 0.22.
Taken in the same sequence, the figures for RADSFKVSYQLADGGEPQSVQVDG [TNXB] were 4.89 ± 0.15 and 5.01 ± 0.22.
Regarding RAEGTDIPTVKPLKPRPEPPKKPS [ZC2HC1A], the protein stability index reads like this: under setting [1], 5.38 ± 0.18; under setting [2], 5.4 ± 0.27.
In the case of RAPHKESTLPRSGSSGGQQPSGMK [CHCHD6], the protein stability index under setting [1] stood at 4.96 ± 0.58 and the protein stability index under setting [2] was 5.05 ± 0.46.
In turn, RAYDLLRAASENSQDALRVVSTSG [IKZF1] showed a protein stability index under setting [1] of 2.62 ± 0.37 and a protein stability index under setting [2] of 2.84 ± 0.31.
As to RAYFMSDTREEKRFLGEGHHRVQE [CHGB], the protein stability index amounted to 3.87 ± 0.28 under setting [1] and 3.89 ± 0.06 under setting [2].
With RDAIEALCRRLNTLNKCAVMKLEI [DLC1], the protein stability index is 2.13 ± 0.49 under setting [1] and 2.54 ± 0.17 under setting [2].
Turning to RDHVETELLKEAELIRNIQELLKR [TEKT4], the protein stability index runs as follows: under setting [1], 2.74 ± 0.16; under setting [2], 3.01 ± 0.36.
For the sequence RDLKPENILVTSGGTVKLADFGLA [CDK4], the protein stability index turned out to be 3.31 ± 0.44 under setting [1] and 3.33 ± 0.27 under setting [2].
Turning to RDRFKSFQRRNMIEPRERAKFKRK [NOP53], the protein stability index is, setting by setting: under setting [1], 4.11 ± 0.47; under setting [2], 4.54 ± 0.35.
RDSLSHLVPALRLPGRKLVSSAVS [INTS4] came in with a protein stability index under setting [1] of 3.04 ± 0.12 and a protein stability index under setting [2] of 3.21 ± 0.24.
Sequence RDYVRLFGIKCAKCQVGFSSSDLV [ISL2] came in with a protein stability index under setting [1] of 2.51 ± 0.52 and a protein stability index under setting [2] of 2.25 ± 0.23.
Turning to REEEERERLQKEEEKRRREEEERL [ACBD3], the protein stability index worked out at 5.5 ± 0.35 under setting [1] and 5.74 ± 0.21 under setting [2].
Taken in the same sequence, the figures for REKPFKCQECGKTFRVSSDLIKHQ [ZNF75A] were 4.73 ± 0.19 and 4.72 ± 0.32.
For the sequence RFLVGMMNGGMSLVAFVLLNECVG [SLC22A15], the protein stability index was 3.25 ± 0.35 under setting [1] and 2.9 ± 0.38 under setting [2].
As to RGPLNSDRSDYFAAWGARVFSFGK [TRIM43], the protein stability index worked out at 2.79 ± 0.22 under setting [1] and 2.76 ± 0.22 under setting [2].
For RGREAGPPQPMVPLAVENQAGGEG [PBXIP1], the protein stability index stood at 5.27 ± 0.38 under setting [1] and 5.25 ± 0.16 under setting [2].
Taken in the same sequence, the figures for RIASRAIDNAADLLIFGKELSAIG [SNX8] were 2.34 ± 0.28 and 2.44 ± 0.38.
For the sequence RIRSYLREVSSYPSTVGAEAQEEF [DFFB], the protein stability index reads like this: under setting [1], 3.33 ± 0.16; under setting [2], 3.58 ± 0.29.
Taken in the same sequence, the figures for RITKDNRRHCQACRLKRCVDIGMM [VDR] were 2.42 ± 0.36 and 2.68 ± 0.29.
Taken in the same sequence, the figures for RLAELLLLETDAGPAASEGAEQPP [GADD45A] were 3.26 ± 0.22 and 3.6 ± 0.56.
With RLASYLDKVRALEEANADLEVKIH [KRT15], the protein stability index by setting is: under setting [1], 2.33 ± 0.15; under setting [2], 2.67 ± 0.22.
Sequence RLGQRQPPPSEPTQGPEIVPRGAG [DNAJC4] gave a protein stability index under setting [1] of 4.83 ± 0.15 and a protein stability index under setting [2] of 4.84 ± 0.12.
With RLNAYRGYCSNQLAAKALLDQKKQ [NET1], the protein stability index came to 3.25 ± 0.25 under setting [1] and 3.25 ± 0.26 under setting [2].
On to RLVNEYVELVNAACNFEPHESFFS [ZER1], for which the protein stability index was determined as 2.34 ± 0.4 under setting [1] and 2.1 ± 0.48 under setting [2].
For the sequence RMLFWACSTNKPEGYRVSQALREN [FAF2], the protein stability index came to 2.27 ± 0.16 under setting [1] and 2.46 ± 0.18 under setting [2].
As for RPGATAVPTPLTNVQILLPVGEPV [FCHO1], the protein stability index runs as follows: under setting [1], 3.4 ± 0.26; under setting [2], 3.33 ± 0.2.
As for RPGPSASAASSAAAGEPLECPTCG [RNF208], the protein stability index stood at 5.3 ± 0.2 under setting [1] and 5.3 ± 0.28 under setting [2].
Turning to RPHGIFGPRDPQLVPILIEAARNG [NSDHL], the protein stability index under setting [1] amounted to 2.91 ± 0.34 and the protein stability index under setting [2] was determined as 3.04 ± 0.24.
Taken in the same sequence, the figures for RPHVHKQTEKTTRVRTVLNEKQLH [ISL2] were 4.21 ± 0.098 and 4.39 ± 0.24.
Taken in the same sequence, the figures for RPPFETTNLKETYRCIREARYTMP [PLK2] were 2.72 ± 0.47 and 2.31 ± 0.26.
Taken in the same sequence, the figures for RPQSAQSSFPPSPGPSPDVQLATL [AUP1] were 4.34 ± 0.44 and 4.34 ± 0.47.
For the sequence RPRRRDGPEHATRLNGTAKGERRR [DVL3], the protein stability index turned out to be 5.06 ± 0.38 under setting [1] and 5.08 ± 0.42 under setting [2].
For RPSFNRTPIPWLSSGEPVDYNVDI [MYOZ1], the protein stability index runs as follows: under setting [1], 3.57 ± 0.5; under setting [2], 3.66 ± 0.39.
RQGLKYCLPLTFCIHTGLSQYIAV [FBXO3]: the protein stability index reads like this: under setting [1], 3.08 ± 0.45; under setting [2], 2.87 ± 0.52.
In the case of RQKEVDFCISLLRERFMECLMIGR [INTS3], the protein stability index runs as follows: under setting [1], 2.52 ± 0.74; under setting [2], 2.28 ± 0.13.
Taken in the same sequence, the figures for RQLLRDFQSRLPYQYLHYALFKAN [P3H4] were 2.49 ± 0.29 and 2.16 ± 0.43.
For the sequence RREVAKTVFCLVVIFALCWFPLHL [EDNRA], the protein stability index is, setting by setting: under setting [1], 2.93 ± 0.19; under setting [2], 2.53 ± 0.27.
Consider RRHLQFWKSHLRNVQRPLLQAPFL [RHOBTB2], for which the protein stability index by setting is: under setting [1], 2.29 ± 0.38; under setting [2], 2.21 ± 0.3.
Consider RRHTSMERYDPNIDQWSMLGDMQT [KLHL12], for which the protein stability index reads like this: under setting [1], 3.86 ± 0.27; under setting [2], 3.82 ± 0.26.
